Data published in article PMC10427645, “Extracellular Pgk1 interacts neural membrane protein enolase-2 to improve the neurite outgrowth of motor neurons” (Communications Biology, 2023).

Target: T1, Eno2-Myc (mouse Enolase-2 fused with Myc) (mouse, UniProt P17183 1-434)
T1 construct: Pgk1-Flag was added to the medium of Sf21 cells expressing this protein, followed by BS3 cross-linking; source: Sf21 insect cells (Baculovirus, pVL-Eno2-Myc), expressed on or in the cells, not purified
Assay: cross-linking + co-IP; cell surface crosslinking-IP: Sf21 cells expressing the Myc-tagged protein incubated 2 h with recombinant Flag-tagged Pgk1 or fragment in the medium, BS3 cross-linking, lysates immunoprecipitated with anti-Flag or anti-Myc beads, western blot with anti-Flag and anti-Myc
Conditions: one partner purified

T1 sequence (P17183 whole entry, the tested form may be a part): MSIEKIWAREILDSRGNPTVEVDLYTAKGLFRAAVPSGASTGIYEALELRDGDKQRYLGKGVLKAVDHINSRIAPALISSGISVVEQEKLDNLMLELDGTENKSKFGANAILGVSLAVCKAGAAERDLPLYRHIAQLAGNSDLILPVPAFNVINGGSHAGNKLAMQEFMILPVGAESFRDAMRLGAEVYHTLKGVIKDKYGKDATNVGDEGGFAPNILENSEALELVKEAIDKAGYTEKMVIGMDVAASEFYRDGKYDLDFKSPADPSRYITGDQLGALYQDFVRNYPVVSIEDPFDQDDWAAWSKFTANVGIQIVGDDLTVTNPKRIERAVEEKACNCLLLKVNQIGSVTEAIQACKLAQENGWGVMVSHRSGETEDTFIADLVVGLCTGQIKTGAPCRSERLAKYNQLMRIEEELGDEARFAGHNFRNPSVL

B1: recombinant mouse Pgk1 fused with Flag (Pgk1-Flag) (natural protein, UniProt P09411 1-417, looked up)
chain: MSLSNKLTLDKLDVKGKRVVMRVDFNVPMKNNQITNNQRIKAAVPSIKFCLDNGAKSVVLMSHLGRPDGVPMPDKYSLEPVAAELKSLLGKDVLFLKDCVGPEVENACANPAAGTVILLENLRFHVEEEGKGKDASGNKVKAEPAKIDAFRASLSKLGDVYVNDAFGTAHRAHSSMVGVNLPQKAGGFLMKKELNYFAKALESPERPFLAILGGAKVADKIQLINNMLDKVNEMIIGGGMAFTFLKVLNNMEIGTSLYDEEGAKIVKDLMSKAEKNGVKITLPVDFVTADKFDENAKTGQATVASGIPAGWMGLDCGTESSKKYAEAVGRAKQIVWNGPVGVFEWEAFARGTKSLMDEVVKATSRGCITIIGGGDTATCCAKWNTEDKVSHVSTGGGASLELLEGKVLPGVDALSNV
notes: phosphoglycerate kinase 1 (Pgk1), mouse, full-length coding region (1-417), cDNA cloned from NSC34 and C2C12 cells; also called extracellular Pgk1; phosphoglycerate kinase 1; source: Sf21 insect cells (Baculovirus expression system), purified (anti-Flag beads, eluted with 3x Flag peptide)
  fold, intensity ratio of Flag relative to Myc in the Eno2-Myc plus Pgk1-Flag group against the Eno2-Myc group (set as 1): 8 fold
  fold, intensity ratio of Myc relative to Flag in the Pgk1-Flag plus Eno2-Myc group against the Pgk1-Flag group (set as 1): 14 fold
